Assay results published in patent US20080306243A1, “Hla-Binding Peptide, and Dna Fragment and Recombinant Vector Coding for Said Hla-Binding Peptide” (NEC CORPORATION, priority 2005, published 2008).
Like-named read-outs stand apart in the source and are kept apart here.

Tests used:
[1] = target: HLA-A0206 molecule, which is a product of the HLA-A*0206 gene (human); test: flow cytometry; peptide stabilisation of empty HLA-A0206 on RA2.6 cells (TAP-deficient), stained with mAb 17A10 or 17A12
[2] = target: HLA-A2402 molecule, which is a product of the HLA-A*2402 gene (human); test: flow cytometry; reassociation of peptide, added β2m and HLA-A2402 on acid-stripped C1R-A24 cells, stained with mAb 17A12
[3] = target: HLA-A0201 molecule, which is a product of the HLA-A*0201 gene (human); test: flow cytometry; reassociation of peptide, added β2m and HLA-A0201 on acid-stripped JY cells, stained with mAb BB7.2; details: remark: other sources report otherwise
[4] = remark: other sources report otherwise

-log Kd [1] | Binder | further results
6.28 -log Kd | GVLVHPQWV (modifications not checked) [SEQ ID NO 19] | 
5.26 -log Kd | DLPTQEPAL (modifications not checked) [SEQ ID NO 27] | 
5.25 -log Kd | LVASRGRAV (modifications not checked) [SEQ ID NO 22] | 

Continued, binder first:

Binder | -log Kd [1] | further results
WVLTAAHCI [SEQ ID NO 12] |  | -log Kd [2, 4]: 4.63 -log Kd
WVPVVFLTL (modifications not checked) [SEQ ID NO 24] | 6.74 -log Kd | 
DLPTQEPAL (modifications not checked) [SEQ ID NO 4] |  | -log Kd [2, 4]: 5.23 -log Kd
WVPVVFLTL (modifications not checked) [SEQ ID NO 2] |  | -log Kd [2]: 7.29 -log Kd
MLLRLSEPA [SEQ ID NO 17] |  | -log Kd [3]: 6.2 -log Kd
